The target in assay [1] is 重组人THSD7A蛋白 (recombinant human THSD7A protein) (human) (UniProt Q9UPZ6). Nature of the assay: indirect ELISA on coated THSD7A, against the anti-THSD7A human serum standard.
Assay [2] has the same target. Nature of the assay: indirect ELISA on coated THSD7A, serum standard read on the rhA3 standard curve.
The target is the same in assay [3]. Description: indirect ELISA on coated THSD7A, value read from the curve of the anti-THSD7A human serum standard. (In general: In an ELISA, binding on a coated surface is turned into a signal by an enzyme label.)
Assay [4] addresses T1, 重组人THSD7A蛋白 (recombinant human THSD7A protein) (human, UniProt Q9UPZ6 48-1606).
T1 construct: Expressed by transient transfection of 293T cells; no tag is mentioned; also called hTHSD7A; 人源THSD7A
Nature of the assay: phage ELISA / ELISA of supernatants on the antigen, then chemiluminescence immunoassay of purified antibody.

T1 sequence (Q9UPZ6 48-1606 limits assumed): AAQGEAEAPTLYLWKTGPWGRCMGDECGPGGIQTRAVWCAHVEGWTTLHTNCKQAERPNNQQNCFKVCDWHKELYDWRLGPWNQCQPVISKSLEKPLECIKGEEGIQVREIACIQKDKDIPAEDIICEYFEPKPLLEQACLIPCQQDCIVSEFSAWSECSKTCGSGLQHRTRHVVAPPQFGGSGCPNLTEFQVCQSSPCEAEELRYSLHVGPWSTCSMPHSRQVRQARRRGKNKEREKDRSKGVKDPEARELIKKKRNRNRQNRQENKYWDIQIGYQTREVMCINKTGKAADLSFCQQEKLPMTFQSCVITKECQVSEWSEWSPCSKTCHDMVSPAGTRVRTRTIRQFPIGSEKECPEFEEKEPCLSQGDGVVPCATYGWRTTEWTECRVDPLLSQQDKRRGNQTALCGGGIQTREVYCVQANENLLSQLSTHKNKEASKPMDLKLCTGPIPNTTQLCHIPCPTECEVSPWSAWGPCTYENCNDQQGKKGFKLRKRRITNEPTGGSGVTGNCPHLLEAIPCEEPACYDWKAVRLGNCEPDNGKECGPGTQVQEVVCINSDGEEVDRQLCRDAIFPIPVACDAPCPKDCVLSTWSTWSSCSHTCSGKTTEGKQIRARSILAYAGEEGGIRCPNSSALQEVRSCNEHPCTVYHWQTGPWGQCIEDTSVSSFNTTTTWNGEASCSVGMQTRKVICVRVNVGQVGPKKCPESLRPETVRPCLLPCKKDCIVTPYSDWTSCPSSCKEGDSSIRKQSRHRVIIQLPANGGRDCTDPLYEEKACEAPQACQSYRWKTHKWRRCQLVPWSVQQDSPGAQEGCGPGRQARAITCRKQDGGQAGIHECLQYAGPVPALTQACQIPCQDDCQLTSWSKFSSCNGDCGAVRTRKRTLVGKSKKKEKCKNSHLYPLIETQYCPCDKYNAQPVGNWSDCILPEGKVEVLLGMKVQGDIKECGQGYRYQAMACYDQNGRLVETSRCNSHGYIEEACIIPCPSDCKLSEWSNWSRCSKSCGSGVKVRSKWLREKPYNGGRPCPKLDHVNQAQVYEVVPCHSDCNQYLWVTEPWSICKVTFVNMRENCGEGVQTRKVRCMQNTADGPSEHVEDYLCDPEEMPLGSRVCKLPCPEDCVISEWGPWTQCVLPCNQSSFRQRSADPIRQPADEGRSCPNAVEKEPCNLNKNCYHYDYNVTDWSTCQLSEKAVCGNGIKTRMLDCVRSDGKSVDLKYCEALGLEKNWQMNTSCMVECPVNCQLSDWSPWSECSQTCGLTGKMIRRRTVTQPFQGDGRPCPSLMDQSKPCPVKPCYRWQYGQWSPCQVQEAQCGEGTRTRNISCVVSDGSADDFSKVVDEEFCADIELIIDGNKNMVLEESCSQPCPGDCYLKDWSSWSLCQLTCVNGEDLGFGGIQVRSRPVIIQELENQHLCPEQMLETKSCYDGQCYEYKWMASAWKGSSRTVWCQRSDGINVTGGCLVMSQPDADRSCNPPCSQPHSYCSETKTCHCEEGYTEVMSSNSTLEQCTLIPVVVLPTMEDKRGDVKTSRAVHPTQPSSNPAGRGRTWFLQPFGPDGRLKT

B1: 嵌合单抗rhA3 (重组嵌合抗体A3单抗) (antibody, human IgG4 S228P, kappa, V domains shown)
VH: QSVKESGGRLVTPGGTLTLTCTVSGFSLSTYYMSWVRQAPGKGLEWIGSIESYGDRYYATWAKGRFTISKTSSTTVDLKMTSLTASDTATYFCTRNDLSWDNDNIWGPGTLVTVSS
VL: DVQMTQTPSSVSVSVGGTVTINCQASQSVYGNNELNWYQQKSGQPPKLLIYKAGTLASGVPSRFSGSGSGTQFTLTISDLECDDAAIYYCQGGYWGQRAFGGGTKLEIKR
As for B1, in assay [1], the THSD7A抗体活性 per ng was found to be 3 U/ng, the 比活 at 4ng/mL rhA3 turned out to be 3.01 U/ng, the 比活 at 20ng/mL rhA3 was 2.99 U/ng and the 比活 at 100ng/mL rhA3 stood at 3.05 U/ng. Further, in assay [2], the 比活 (serum standard 12U/mL on rhA3 curve) is 3.01 U/ng, the 比活 (serum standard 60U/mL on rhA3 curve) was 2.97 U/ng and the 比活 (serum standard 300U/mL on rhA3 curve) is 2.97 U/ng. Besides, in assay [3], the THSD7A抗体浓度 (read from serum standard curve) at 4ng/mL rhA3 came to 12 U/mL, the THSD7A抗体浓度 (read from serum standard curve) at 20ng/mL rhA3 turned out to be 60.5 U/mL and the THSD7A抗体浓度 (read from serum standard curve) at 100ng/mL rhA3 came out at 305 U/mL.

B2: 小鼠抗THSD7A单抗A3 (antibody, V domains shown)
VH: QSVKESGGRLVTPGGTLTLTCTVSGFSLSTYYMSWVRQAPGKGLEWIGSIESYGDRYYATWAKGRFTISKTSSTTVDLKMTSLTASDTATYFCTRNDLSWDNDNIWGPGTLVTVSS
VL: DVQMTQTPSSVSVSVGGTVTINCQASQSVYGNNELNWYQQKSGQPPKLLIYKAGTLASGVPSRFSGSGSGTQFTLTISDLECDDAAIYYCQGGYWGQRAFGGGTKLEIK
notes: Selected from a phage scFv library of immunised mice; variable regions cloned into a eukaryotic expression vector and expressed in 293T cells
As to B2, in assay [4], the binding result is “binds”.

The values are drawn from patent CN118063606A (JIANGXI SAIJI BIOTECHNOLOGY CO LTD; HANGZHOU SAIJI …, dated 2024).
